Target: T1, human factor VIII (human, UniProt P00451 20-2351)
T1 construct: also called FVIII
Test: Surface Plasmon Resonance

T1 sequence (P00451 20-2351 limits assumed): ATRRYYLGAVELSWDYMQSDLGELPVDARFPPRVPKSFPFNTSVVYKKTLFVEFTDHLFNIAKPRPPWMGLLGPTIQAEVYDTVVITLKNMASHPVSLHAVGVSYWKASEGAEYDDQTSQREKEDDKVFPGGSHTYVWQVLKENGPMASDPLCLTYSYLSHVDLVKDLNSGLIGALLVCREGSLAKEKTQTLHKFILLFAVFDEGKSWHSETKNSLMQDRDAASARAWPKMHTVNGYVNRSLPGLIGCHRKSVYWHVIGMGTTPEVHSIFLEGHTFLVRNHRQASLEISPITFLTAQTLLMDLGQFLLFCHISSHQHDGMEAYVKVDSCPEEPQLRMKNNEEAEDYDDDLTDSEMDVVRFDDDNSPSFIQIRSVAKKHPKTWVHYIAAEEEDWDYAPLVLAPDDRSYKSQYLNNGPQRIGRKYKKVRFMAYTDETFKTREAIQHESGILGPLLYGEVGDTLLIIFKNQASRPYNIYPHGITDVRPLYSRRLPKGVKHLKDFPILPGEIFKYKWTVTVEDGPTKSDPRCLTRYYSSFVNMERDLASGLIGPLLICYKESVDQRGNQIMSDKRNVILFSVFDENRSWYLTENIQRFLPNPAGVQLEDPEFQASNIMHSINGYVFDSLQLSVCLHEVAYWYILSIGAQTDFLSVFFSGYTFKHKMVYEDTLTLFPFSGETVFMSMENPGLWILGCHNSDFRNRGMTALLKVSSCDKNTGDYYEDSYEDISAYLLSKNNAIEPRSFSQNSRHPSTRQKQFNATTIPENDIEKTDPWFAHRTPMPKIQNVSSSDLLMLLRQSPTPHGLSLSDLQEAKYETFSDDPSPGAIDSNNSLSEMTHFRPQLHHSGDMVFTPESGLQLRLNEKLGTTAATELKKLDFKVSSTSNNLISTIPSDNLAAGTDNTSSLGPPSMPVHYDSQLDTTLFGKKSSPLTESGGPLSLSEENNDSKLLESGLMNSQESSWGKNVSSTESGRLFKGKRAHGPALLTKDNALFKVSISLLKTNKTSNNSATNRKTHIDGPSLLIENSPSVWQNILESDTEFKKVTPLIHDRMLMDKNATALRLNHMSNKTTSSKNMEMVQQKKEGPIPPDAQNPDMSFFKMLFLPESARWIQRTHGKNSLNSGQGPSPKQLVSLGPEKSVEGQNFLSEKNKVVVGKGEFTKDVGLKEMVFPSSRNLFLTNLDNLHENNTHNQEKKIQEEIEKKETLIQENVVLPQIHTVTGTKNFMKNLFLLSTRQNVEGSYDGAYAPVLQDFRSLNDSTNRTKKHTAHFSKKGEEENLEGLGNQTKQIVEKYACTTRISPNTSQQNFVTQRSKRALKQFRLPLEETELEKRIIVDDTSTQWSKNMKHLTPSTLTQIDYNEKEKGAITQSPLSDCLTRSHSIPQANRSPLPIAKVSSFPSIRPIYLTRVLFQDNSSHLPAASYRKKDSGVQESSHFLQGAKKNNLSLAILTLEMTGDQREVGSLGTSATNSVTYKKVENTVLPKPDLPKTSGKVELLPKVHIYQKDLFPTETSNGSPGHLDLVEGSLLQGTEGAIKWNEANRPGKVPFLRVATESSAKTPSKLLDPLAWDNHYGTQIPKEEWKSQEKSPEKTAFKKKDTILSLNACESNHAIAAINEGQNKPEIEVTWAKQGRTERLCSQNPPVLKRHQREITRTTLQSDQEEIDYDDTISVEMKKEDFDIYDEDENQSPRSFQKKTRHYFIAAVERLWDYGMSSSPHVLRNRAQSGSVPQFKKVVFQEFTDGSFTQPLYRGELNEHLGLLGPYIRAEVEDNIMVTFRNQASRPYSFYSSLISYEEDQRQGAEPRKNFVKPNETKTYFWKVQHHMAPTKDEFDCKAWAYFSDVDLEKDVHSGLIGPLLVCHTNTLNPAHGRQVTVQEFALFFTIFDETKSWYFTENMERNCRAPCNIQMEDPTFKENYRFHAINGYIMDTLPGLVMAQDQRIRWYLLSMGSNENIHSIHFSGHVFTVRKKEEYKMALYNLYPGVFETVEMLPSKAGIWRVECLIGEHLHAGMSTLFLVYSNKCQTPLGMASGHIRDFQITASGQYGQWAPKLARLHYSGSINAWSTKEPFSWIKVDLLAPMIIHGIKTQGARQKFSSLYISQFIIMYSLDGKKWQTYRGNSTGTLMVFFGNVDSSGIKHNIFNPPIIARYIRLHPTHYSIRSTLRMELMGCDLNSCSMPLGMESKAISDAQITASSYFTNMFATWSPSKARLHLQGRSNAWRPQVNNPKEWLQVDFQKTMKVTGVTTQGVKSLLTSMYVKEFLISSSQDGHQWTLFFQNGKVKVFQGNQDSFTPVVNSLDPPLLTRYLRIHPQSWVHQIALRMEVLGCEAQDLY

B1: human monoclonal antibody BO2C11 (antibody, V domains shown)
VH: QVQLVQSGAEVKKPGASVKVSCKVSGYTLTELPVHWVRQAPGKGLEWVGSFDPESGESIYAREFQGSVTMTADTSTDIAYMELSSLRSDDTAVYYCAVPDPDAFDIWGQGTMVTVSS
VL: EIALTQSPGTLSLSPGERATLSCRASQSFSSSYLAWYQQKPGQAPRLLIYGASTRATGIPDRFSGSGSGTDFTLTISRLEPEDFAVYYCQKYGTSAITFGQGTRLEIK
notes: also called B02C11
Question: How did the koff turn out when B1 was run?
Answer: ≤ 1e-05 s⁻¹
